Experimental data as given in US20250145679A1 (WUXI BIOLOGICS IRELAND, published 2025).

Assays:
IL-2/15Rβ (CD122) ECD = target: T1, IL-2/15Rβ (CD122) ECD (human, UniProt P14784 27-239); assay: SPR, Biacore 8K, complex captured on anti-human Fc CM5 chip, receptor ECD-His injected
T1 construct: The SPR text names the analyte only as 'W327151-hPro2.ECD.His'; also called Receptor β; IL-15Rβ
T1 sequence: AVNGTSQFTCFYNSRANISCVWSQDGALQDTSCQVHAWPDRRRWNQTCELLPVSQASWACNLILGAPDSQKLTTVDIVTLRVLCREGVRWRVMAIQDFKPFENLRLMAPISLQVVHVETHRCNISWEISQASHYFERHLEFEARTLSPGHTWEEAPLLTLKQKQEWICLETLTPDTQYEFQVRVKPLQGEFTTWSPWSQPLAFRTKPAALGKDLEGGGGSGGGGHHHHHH
Protocol: IL-15 variants binding affinity to its receptor were detected by SPR using Biacore 8K. Each variant was captured on anti-human Fc immobilized CM5 sensor chip (cytiva). W327151-hPro2.ECD.His at different concentrations were injected over the sensor chip at a flow rate of 30 uL/min for an association phase of 120 s, followed by 120 s dissociation. The chip was then regenerated by 10 mM Glycine-HCl pH 1.5 after each binding cycle.

[1] = target: T2, human lymphoma (HH) cell line (human); assay: binding to HH cells, dose-dependent (FIG. 5); receptor on the cells not named
T2 construct: Cells, not a defined protein

- Kd (IL-2/15Rβ (CD122) ECD): 7.9 nM
- koff (IL-2/15Rβ (CD122) ECD): 0.00483 s⁻¹
- kon (IL-2/15Rβ (CD122) ECD): 612000 M⁻¹ s⁻¹
- EC50 [1]: 91.9 nM
B1: W327151-TXU1.P1-V0013.uIgG4V322 (Fc fusion)
chain 1: NWVNVISDLKKIEDLIQSMHIDATLYTESDVHPSCKVTAMKCFLLELQVISLESGDASIHDTVENLIILANNSLSSNGNVTESGCKECEELEEKNIKEFLQSFVHIVQMFESKYGPPCPPCPAPEAAGGPSVFLFPPKPKDTLMISRTPEVTCVVVDVSQEDPEVQFNWYVDGVEVHNAKTKPREEQFNSTYRVVSVLTVLHQDWLNGKEYKCKVSNKGLPSSIEKTISKAKGQPREPQVYTLPPCQEEMTKNQVSLWCLVKGFYPSDIAVEWESNGQPENNYKTTPPVLDSDGSFFLYSRLTVDKSRWQEGNVFSCSVMHEALHNHYTQKSLSLSLGK
chain 2: ITCPPPMSVEHADIWVKSYSLYSRERYICNSGFKRKAGTSSLTECVLNKATNVAHWTTPSLKCIRESKYGPPCPPCPAPEAAGGPSVFLFPPKPKDTLMISRTPEVTCVVVDVSQEDPEVQFNWYVDGVEVHNAKTKPREEQFNSTYRVVSVLTVLHQDWLNGKEYKCKVSNKGLPSSIEKTISKAKGQPREPQVCTLPPSQEEMTKNQVSLSCAVKGFYPSDIAVEWESNGQPENNYKTTPPVLDSDGSFFLVSRLTVDKSRWQEGNVFSCSVMHEALHNHYTQKSLSLSLGK
notes: Heterodimeric IL-15/IL-15Ralpha-Fc polypeptide complex; IgG4 Fc with S228P and F234A/L235A, knob-into-hole
